The target in the assay is Insulin-Degrading Enzyme (IDE), species not stated (Homo sapiens (Human)) (UniProt P14735). The experiment in a line: cell-based or functional assay.

Substance “Insulin isolated from bovine pancreas (SIGMA) (from UniProt P01317 85-105; P01317 25-54) (ligand)” returned an insulin degradation by IDE without inhibitor, 16 hours at 37 C, insulin ELISA (% degradation) of 60.

Values taken from patent US20120028894A1.
